In PMC6856716:
Where two headings read alike, the source gives them in different places.

Key:
[1] = molecular target: Actin (rabbit skeletal muscle alpha actin), polymerized (F-actin) (rabbit) (UniProt P68135); assay: co-sedimentation
[2] = molecular target: Actin (rabbit skeletal muscle alpha actin), polymerized (F-actin) (rabbit) (UniProt P68135); assay: co-sedimentation; remark: listed apart in the source

Row | Substance | co-sedimented talin fragment relative to talin-FL (relative to talin-FL) [1] | co-sedimented talin fragment relative to talin-FL (relative to talin-FL) [2]
1 | talin N-R12 (C-terminal truncation), P26039 1-2294 | 0.68 | –
2 | talin R1-C (truncation lacking the FERM domain), P26039 482-2541 | 1.1 | 1.3
3 | talin N-R11 (C-terminal truncation lacking R12 and the C-terminus), P26039 1-2141 | 1.3 | 1.1
